Laboratory results reported in patent publication US20250262210A1 (TRUSTEES OF COLUMBIA UNIVERSITY IN THE CITY OF NEW YORK, published 2025).
Numbering of substitutions follows the chain as printed. Each block holds one binder with its values, some of them ahead of it.

Legend:
LZTR1-FLAG = molecular target: T1, LZTR1-FLAG (human, UniProt Q8N653 1-840); experiment: IP/MS, LZTR1 wild type-FLAG, U87
T1 construct: Expressed in HEK 293T, HeLa or U87 cells; used as cell lysate; also called LZTR1 wild type-FLAG; LZTR1 WT; not shown: FLAG tag at the C-terminus
T1 sequence (looked up): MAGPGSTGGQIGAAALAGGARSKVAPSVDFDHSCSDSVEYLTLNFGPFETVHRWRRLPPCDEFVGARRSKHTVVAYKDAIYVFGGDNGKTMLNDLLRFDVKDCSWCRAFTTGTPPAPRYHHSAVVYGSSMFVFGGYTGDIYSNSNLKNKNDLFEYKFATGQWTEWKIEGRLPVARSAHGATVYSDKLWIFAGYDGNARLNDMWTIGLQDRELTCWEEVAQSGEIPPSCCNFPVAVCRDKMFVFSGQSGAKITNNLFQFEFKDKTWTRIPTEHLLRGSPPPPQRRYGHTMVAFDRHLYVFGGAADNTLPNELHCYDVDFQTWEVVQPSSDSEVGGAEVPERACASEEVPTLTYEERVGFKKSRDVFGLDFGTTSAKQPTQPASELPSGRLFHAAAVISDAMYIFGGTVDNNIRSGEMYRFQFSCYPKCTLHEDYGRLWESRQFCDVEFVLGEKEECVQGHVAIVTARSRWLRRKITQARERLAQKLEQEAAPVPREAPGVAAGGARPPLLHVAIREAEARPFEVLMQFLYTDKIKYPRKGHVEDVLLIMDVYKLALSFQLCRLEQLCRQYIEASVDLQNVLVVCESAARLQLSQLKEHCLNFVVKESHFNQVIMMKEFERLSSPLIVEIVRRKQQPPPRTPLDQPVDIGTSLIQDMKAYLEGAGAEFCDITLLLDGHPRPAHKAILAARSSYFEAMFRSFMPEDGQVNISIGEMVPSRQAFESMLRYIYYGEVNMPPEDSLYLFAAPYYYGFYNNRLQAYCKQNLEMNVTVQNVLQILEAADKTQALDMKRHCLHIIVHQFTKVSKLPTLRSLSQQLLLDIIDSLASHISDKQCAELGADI
In short: (§1)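 Read-out: spectral counts from LC-MS/MS (Orbitrap Fusion) after MaxQuant identification. Variable modifications were Met oxidation, protein N-terminal acetylation and N/Q deamidation.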

LZTR1 R810W-FLAG = molecular target: T2, LZTR1 R810W-FLAG (human, UniProt Q8N653 1-840); experiment: IP/MS, LZTR1 R810W-FLAG, U87
T2 construct: Stably expressed in U87 cells by lentivirus; also called LZTR1-FLAG-R810W; LZTR1 RW; not shown: FLAG tag
T2 sequence (looked up): T1 sequence (looked up) with R810W
In short: as §1

binding result (LZTR1-FLAG): binds | binding result (LZTR1 R810W-FLAG): binds
B1: KLHDC10 (other, human, UniProt Q6PID8 1-442, looked up)
chain: MSAAQGWDRNRRRGGGAAGAGGGGSGAGGGSGGSGGRGTGQLNRFVQLSGRPHLPGKKKIRWDPVRRRFIQSCPIIRIPNRFLRGHRPPPARSGHRCVADNTNLYVFGGYNPDYDESGGPDNEDYPLFRELWRYHFATGVWHQMGTDGYMPRELASMSLVLHGNNLLVFGGTGIPFGESNGNDVHVCNVKYKRWALLSCRGKKPSRIYGQAMAIINGSLYVFGGTTGYIYSTDLHKLDLNTREWTQLKPNNLSCDLPEERYRHEIAHDGQRIYILGGGTSWTAYSLNKIHAYNLETNAWEEIATKPHEKIGFPAARRCHSCVQIKNDVFICGGYNGEVILGDIWKLNLQTFQWVKLPATMPEPVYFHCAAVTPAGCMYIHGGVVNIHENKRTGSLFKIWLVVPSLLELAWEKLLAAFPNLANLSRTQLLHLGLTQGLIERLK

binding result (LZTR1-FLAG): binds | binding result (LZTR1 R810W-FLAG): binds
B2: KLHL26 (other, human, UniProt Q53HC5 2-615, looked up)
chain: AESGGSSGGAGGGGAFGAGPGPERPNSTADKNGALKCTFSAPSHSTSLLQGLATLRAQGQLLDVVLTINREAFPAHKVVLAACSDYFRAMFTGGMREASQDVIELKGVSARGLRHIIDFAYSAEVTLDLDCVQDVLGAAVFLQMLPVVELCEEFLKAAMSVETCLNIGQMATTFSLASLRESVDAFTFRHFLQIAEEEDFLRLPLERLVFFLQSNRLQSCAEIDLFRAAVRWLQHDPARRPRASHVLCHIRFPLMQSSELVDSVQTLDIMVEDVLCRQYLLEAFNYQVLPFRQHEMQSPRTAVRSDVPSLVTFGGTPYTDSDRSVSSKVYQLPEPGARHFRELTEMEVGCSHTCVAVLDNFVYVAGGQHLQYRSGEGAVDACYRYDPHLNRWLRLQAMQESRIQFQLNVLCGMVYATGGRNRAGSLASVERYCPRRNEWGYACSLKRRTWGHAGAASGGRLYISGGYGISVEDKKALHCYDPVADQWEFKAPMSEPRVLHAMVGAGGRIYALGGRMDHVDRCFDVLAVEYYVPETDQWTSVSPMRAGQSEAGCCLLERKIYIVGGYNWRLNNVTGIVQVYNTDTDEWERDLHFPESFAGIACAPVLLPRAGTRR

binding result (LZTR1-FLAG): binds | binding result (LZTR1 R810W-FLAG): binds
B3: KLHL11 (other, human, UniProt Q9NVR0 16-708, looked up)
chain: ASLQVLEMESMETAAAGSAGLAAEVRGSGTVDFGPGPGISAMEASGGDPGPEAEDFECSSHCSELSWRQNEQRRQGLFCDITLCFGGAGGREFRAHRSVLAAATEYFTPLLSGQFSESRSGRVEMRKWSSEPGPEPDTVEAVIEYMYTGRIRVSTGSVHEVLELADRFLLIRLKEFCGEFLKKKLHLSNCVAIHSLAHMYTLSQLALKAADMIRRNFHKVIQDEEFYTLPFHLIRDWLSDLEITVDSEEVLFETVLKWVQRNAEERERYFEELFKLLRLSQMKPTYLTRHVKPERLVANNEVCVKLVADAVERHALRAENIQSGTCQHPTSHVSLLPRYGQNMDVIMVIGGVSEGGDYLSECVGYFVDEDRWVNLPHIHNHLDGHAVAVTESYVYVAGSMEPGFAKTVERYNPNLNTWEHVCSLMTRKHSFGLTEVKGKLYSIGGHGNFSPGFKDVTVYNPELDKWHNLESAPKILRDVKALAIEDRFVYIAARTPVDRDTEDGLKAVITCYDTETRQWQDVESLPLIDNYCFFQMSVVNSNFYQTASCCPKSYCLENEEAVRKIASQVSDEILESLPPEVLSIEGAAICYYKDDVFIIGGWKNSDDIDKQYRKEAYRYCAERKRWMLLPPMPQPRCRATACHVRIPYRYLHGTQRYPMPQNLMWQKDRIRQMQEIHRHALNMRRVPSSQIEC

binding result (LZTR1-FLAG): binds | binding result (LZTR1 R810W-FLAG): binds
B4: KLHL21 (other, human, UniProt Q9UJP4 1-597, looked up)
chain: MERPAPLAVLPFSDPAHALSLLRGLSQLRAERKFLDVTLEAAGGRDFPAHRAVLAAASPYFRAMFAGQLRESRAERVRLHGVPPDMLQLLLDFSYTGRVAVSGDNAEPLLRAADLLQFPAVKEACGAFLQQQLDLANCLDMQDFAEAFSCSGLASAAQRFILRHVGELGAEQLERLPLARLLRYLRDDGLCVPKEEAAYQLALRWVRADPPRRAAHWPQLLEAVRLPFVRRFYLLAHVEAEPLVARCPPCLRLLREARDFQAARYDRHDRGPCPRMRPRPSTGLAEILVLVGGCDQDCDELVTVDCYNPQTGQWRYLAEFPDHLGGGYSIVALGNDIYVTGGSDGSRLYDCVWRYNSSVNEWAEVAPMLKAREYHSSSVLDGLLYVVAADSTERYDHTTDSWEALQPMTYPMDNCSTTACRGRLYAIGSLAGKETMVMQCYDPDTDLWSLVDCGQLPPWSFAPKTATLNGLMYFVRDDSAEVDVYNPTRNEWDKIPSMNQVHVGGSLAVLGGKLYVSGGYDNTFELSDVVEAYDPETRAWSVVGRLPEPTFWHGSVSIFRQFMPQTFSGGRGFELDSGSDDMDPGRPRPPRDPDELH

binding result (LZTR1-FLAG): binds | binding result (LZTR1 R810W-FLAG): binds
B5: MAEA (other, human, UniProt Q7L5Y9 1-396, looked up)
chain: MAVQESAAQLSMTLKVQEYPTLKVPYETLNKRFRAAQKNIDRETSHVTMVVAELEKTLSGCPAVDSVVSLLDGVVEKLSVLKRKAVESIQAEDESAKLCKRRIEHLKEHSSDQPAAASVWKRKRMDRMMVEHLLRCGYYNTAVKLARQSGIEDLVNIEMFLTAKEVEESLERRETATCLAWCHDNKSRLRKMKSCLEFSLRIQEFIELIRQNKRLDAVRHARKHFSQAEGSQLDEVRQAMGMLAFPPDTHISPYKDLLDPARWRMLIQQFRYDNYRLHQLGNNSVFTLTLQAGLSAIKTPQCYKEDGSSKSPDCPVCSRSLNKLAQPLPMAHCANSRLVCKISGDVMNENNPPMMLPNGYVYGYNSLLSIRQDDKVVCPRTKEVFHFSQAEKVYIM

binding result (LZTR1-FLAG): binds | binding result (LZTR1 R810W-FLAG): binds
B6: MALT1 (other, human, UniProt Q9UDY8 2-824, looked up)
chain: SLLGDPLQALPPSAAPTGPLLAPPAGATLNRLREPLLRRLSELLDQAPEGRGWRRLAELAGSRGRLRLSCLDLEQCSLKVLEPEGSPSLCLLKLMGEKGCTVTELSDFLQAMEHTEVLQLLSPPGIKITVNPESKAVLAGQFVKLCCRATGHPFVQYQWFKMNKEIPNGNTSELIFNAVHVKDAGFYVCRVNNNFTFEFSQWSQLDVCDIPESFQRSVDGVSESKLQICVEPTSQKLMPGSTLVLQCVAVGSPIPHYQWFKNELPLTHETKKLYMVPYVDLEHQGTYWCHVYNDRDSQDSKKVEIIIGRTDEAVECTEDELNNLGHPDNKEQTTDQPLAKDKVALLIGNMNYREHPKLKAPLVDVYELTNLLRQLDFKVVSLLDLTEYEMRNAVDEFLLLLDKGVYGLLYYAGHGYENFGNSFMVPVDAPNPYRSENCLCVQNILKLMQEKETGLNVFLLDMCRKRNDYDDTIPILDALKVTANIVFGYATCQGAEAFEIQHSGLANGIFMKFLKDRLLEDKKITVLLDEVAEDMGKCHLTKGKQALEIRSSLSEKRALTDPIQGTEYSAESLVRNLQWAKAHELPESMCLKFDCGVQIQLGFAAEFSNVMIIYTSIVYKPPEIIMCDAYVTDFPLDLDIDPKDANKGTPEETGSYLVSKDLPKHCLYTRLSSLQKLKEHLVFTVCLSYQYSGLEDTVEDKQEVNVGKPLIAKLDMHRGLGRKTCFQTCLMSNGPYQSSAATSGGAGHYHSLQDPFHGVYHSHPGNPSNVTPADSCHCSRTPDAFISSFAHHASCHFSRSNVPVETTDEIPFSFSDRLRISEK
